Data taken from article PMC314469, “Protein Interaction Networks by Proteome Peptide Scanning” (PLoS Biology, 2004).

T1: Yhr016c SH3 (YSC84_YEAST), P32793
T1 chain: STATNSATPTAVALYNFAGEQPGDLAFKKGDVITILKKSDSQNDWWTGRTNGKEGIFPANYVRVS

T2: Boi2 SH3 (BOI2_YEAST), P39969
T2 chain: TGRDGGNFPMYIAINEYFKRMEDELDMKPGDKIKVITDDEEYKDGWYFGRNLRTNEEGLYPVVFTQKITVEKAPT

T3: Rvs167 SH3 (RV167_YEAST), P39743
T3 chain: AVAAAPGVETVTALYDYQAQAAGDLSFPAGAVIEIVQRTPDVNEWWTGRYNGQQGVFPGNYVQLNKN

T4: Yfr024 SH3 (LSB3_YEAST), P43603
T4 chain: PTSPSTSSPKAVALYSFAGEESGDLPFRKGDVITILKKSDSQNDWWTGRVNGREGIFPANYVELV

T5: Boi1 SH3 (BOI1_YEAST), P38041
T5 chain: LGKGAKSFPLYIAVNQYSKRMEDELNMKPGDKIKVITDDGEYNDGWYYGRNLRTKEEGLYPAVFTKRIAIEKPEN


Columns and labels:
Assay in all cases: SPOT array
[1] = biological target: T1, Yhr016c SH3 (YSC84_YEAST), P32793
[2] = biological target: T2, Boi2 SH3 (BOI2_YEAST), P39969
[3] = biological target: T3, Rvs167 SH3 (RV167_YEAST), P39743
[4] = biological target: T4, Yfr024 SH3 (LSB3_YEAST), P43603
[5] = biological target: T5, Boi1 SH3 (BOI1_YEAST), P38041

normalised SPOT signal, Boehringer light units (BLU); mean over the file's lines of this peptide [1]	normalised SPOT signal, Boehringer light units (BLU); mean over the file's lines of this peptide [2]	normalised SPOT signal, Boehringer light units (BLU); mean over the file's lines of this peptide [3]	normalised SPOT signal, Boehringer light units (BLU); mean over the file's lines of this peptide [4]	normalised SPOT signal, Boehringer light units (BLU); mean over the file's lines of this peptide [5]	Binder
430	54	58.1	1730	7.5	TGFPPTPLKREGVG [YOR191W 815-828]
144	74.6	78.4	746	57.7	TGLPKKPLKTIRLV [YOL090W 24-37]
566	49	218	1890	34.6	TRRPTNPFRVISVS [YNL166C 314-327]
127	25.1	54.9	344	61.5	TKKPRPPVKSKPKH [YOR367W 153-166]
1280	0	46.4	4980	111	TNEPTKPIRRLSTP [YMR042W 23-36]
656	47.3	789	5660	110	TGRPDKPFRALLVD [YLR289W 228-241]
352	53.3	74.3	295	82.6	TLQPGLPHKPLPSD [YKL148C 467-480]
624	4.1	38	1200	31.7	TQAPLAPSRNQENE [YPR055W 308-321]

The remaining lines, values behind:

Binder	normalised SPOT signal, Boehringer light units (BLU); mean over the file's lines of this peptide [1]	normalised SPOT signal, Boehringer light units (BLU); mean over the file's lines of this peptide [2]	normalised SPOT signal, Boehringer light units (BLU); mean over the file's lines of this peptide [3]	normalised SPOT signal, Boehringer light units (BLU); mean over the file's lines of this peptide [4]	normalised SPOT signal, Boehringer light units (BLU); mean over the file's lines of this peptide [5]
TKVPSKPDRNSKIL [YGL207W 463-476]	416	27.3	44	4410	152
TPLPFAPNKSSKKT [YIR023W 846-859]	100	50.4	28.9	315	181
TRRPHHPLKQQSTN [YIL152W 34-47]	154	26.4	70.4	411	87.5
THAPTTPNRTSPNR [YHL007C 507-520]	4050	14.4	552	14600	74.3
TNPPIDPIREANVM [YDL171C 572-585]	110	55.4	27.6	14.7	136
TLRPGIPLKPMLAK [YDL164C 384-397]	229	49.9	118	303	105
TNYPVNPEKHEMDK [YBR140C 1667-1680]	136	32.3	62.1	0	82.1
TKTPTQPIRLQTVS [YER068W 519-532]	234	60.2	104	1360	139
TEVPSKPKKPSKTE [YDR464W 568-581]	67.2	39.9	75.4	3310	361
TLQPGLPHKPLASN [YJL045W 461-474]	86.1	62.6	16.3	3.9	91.4
TPAPNLPEKTRLAL [YBR208C 872-885]	221	38.3	65.7	6030	82.2
TPPPVEPLKTKDLA [YBR284W 102-115]	146	43.4	56.7	36.2	94.4
TSAPDIPPRSPNRN [YDR239C 54-67]	14800	35900	26700	14500	65600
TLIPPIPEKQSIKN [YDL113C 210-223]	324	37.5	38	259	82.1
